Tested on: N-formyl-Met-Ala

recombinant histidine-tagged Mycobacterium tuberculosis peptide deformylase (mPDF), wild-type construct from pET-mPDF
Michalis-Menton constant (Km): 4.1 ± 0.2 mM | catalytic efficiency: 1220 ± 6 M⁻¹ s⁻¹ | velocity maxima (Vmax): 13.3±0.7 µmoles/min/mg protein
